Results on 17 sequences are retold here after a protein production outcome set (Wang et al. 2014).

The nature of this data set: label from the status in PepcDB records.

On to “MRVFPVTLGPLQENAYLVETGEGPVLIDPGDEPEKLLALFQTTGLIPLAILLTHAHFDHVGAVAPLVEALDLPVYLHPLDLPLYEGADLAARAWGLAIPKPPLPVRPLEEGMRLFGFQVLHLPGHSPGHVAFYDPEGAQVFSGDLLFRGSVGRYDLPGADPKALFASLKRLLSLPPETRVHPGHGPGTTLGLEARTNPFLTGLEWEA”, for which the protein production result is “not failed”.

For the sequence “MRVFVTGASGWIGSAVVPELIRAGHQVVGLARSDASAEALTAAGAGVVRGTLDDLDVLRRAAADSDGVVHLAFKHDIAFSGDFKGAGEADRRAVEVIGEALAGSDRPFTIASGTPAIPGHVATEHDGHDADRAAAARGDAQHIRAVTAELTVSLSARGVRSSVVRLAPTNHGEGDNGFVPALIGIARGKGVSGYIGDGTNRWSAAHRLDSARLFRLALEKAPAGSTLHAVAEEGLPVRDLAEVVGRQLGLPVVSVPAAEAEAHFGWLAGPLAANRAASSVLTRELLGWEPVQPGLVEDLEQGHYFK”, the protein production entry is “failed”.

Consider “MRVLVTGGAGFIGSHIVEDLLARGLEVAVLDNLATGKRENVPKGVPFFRVDLRDKEGVERAFREFRPTHVSHQAAQASVKVSVEDPVLDFEVNLLGGLNLLEACRQYGVEKLVFASTGGAIYGEVPEGERAEETWPPRPKSPYAASKAAFEHYLSVYGQSYGLKWVSLRYGNVYGPRQDPHGEAGVVAIFAERVLKGLPVTLYARKTPGDEGCVRDYVYVGDVAEAHALALFSLEGIYNVGTGEGHTTREVLMAVAEAAGKAPEVQPAPPRPGDLERSVLSPLKLMAHGWRPKVGFQEGIRLTVDHFRGAV”, for which the protein production result was “not failed”.

Consider “MRVVALVPGGIGDQILFFPTLDDLKRYYPNAQLDVVVEPRSKAAYRVSKSVNDILTFDYKDRNSLADWGNLVGTIRDREYDVVITVGQSWLVGLFLWLTGIPTRIGYQGKGRSFLTKTVPFKPSQYAAAVYHDLLAPIGITTPTPELAVNVPKPDIDWANSEQKRLGVNETGYVLIYGGSSWVSQPQALETIYPAENWQEIIQDFRQKQPDLPVVVIQGPDDEQFVRSLRDYSLDIKVTSPDNVGKLTAMIAGANLMLTTDSAPLHLSVAVQTYTIALFGSTDPVKLLPNSDKLLGIKSSTGRVADILPKAVLEKVWGGLEHHHHHH”, for which the protein production entry is “not failed”.

For “MRWGSWLALAGLNAFLSIASGAFAAHALSALGDAHGVGLMEKSARYQMYGAFALVVCAWLAERGVGGRLVAVAGWLHLAGVVLFCGALSAIALLGWPAGPVAPLGGSAMLLGWGVLAWIGLRARRGA”, the protein production entry is on record as “failed”.

As to “MRWLLLLLLLAACRAQGLPEPYATLERGGKEALRQVALEAQGYAGLLAGWLLVGEEDLPLAERAEYAWRYALFLEEVRAFEPGWEAEAAWRVAAPLLEAAEDARAFSAWARLLPEEEAVQALLRLGQGERLWEALFRGRAYEPLLKALPEGERPDLRAQALYRLGRYEEALPHYRAWAEADPRGYLGLGYALWRLGRREEALQAFARYDHPESRLAQGRLLEGMGRVEEALARYLASTPEGLWRATALLERLGRKEEALGVYLRLAQGESPYADDAALRAYLLAGELGNGEARQEAYARLEGGLGLLVGKRPSPPPQALEAPPAPLTPLVEALVRAGKAAWARGEVRYALWRRPKDWPALVPLLYRLGAYREGIRAAWPTALAYPRAYREWVEGYAGKEGLDPDLLFALLHVESRFDPKAVSPTGALGLAQFLRSTWADVARMLGEPPADPFDPESAIRYAARYLRWLMERCAAFSGVERLACAVTAYNGGIGYTLRGIAREGGLYAFLRFQERDEPREYLAKVLSAYAAYKAIP”, the protein production entry was “failed”.

Turning to “MRWRADFLSAWAEALLRKAGADEPSAKAVAWALVEADLRGVGSHGLLRLPVYVRRLEAGLVNPSPTLPLEERGPVALLDGEHGFGPRVALKAVEAAQSLARRHGLGAVGVRRSTHFGMAGLYAEKLAREGFVAWVTTNAEPDVVPFGGREKALGTNPLAFAAPAPQGILVADLATSESAMGKVFLAREKGERIPPSWGVDREGSPTDDPHRVYALRPLGGPKGYALALLVEVLSGVLTGAGVAHGIGRMYDEWDRPQDVGHFLLALDPGRFVGKEAFLERMGALWQALKATPPAPGHEEVFLPGELEARRRERALAEGMALPERVVAELKALGERYGVPWRDDA”, the protein production result is given as “not failed”.

Regarding “MRYAAVLVEVGGTHRCLPLDSDGDLNIVASFDRRGKHIYTGNAKGKILVLDAETFEVVASFRIIVGTSSATAVKSIEFARRGDAFLINTSDRVIRVYDSKEIIILGKDGEPEPIQKLQDLVNKTTWKKCCFSGDGEYICAGSARQHALYIWEKSIGNLVKILHGTKGELHKQKRIRSFLERLAKDVPRIKNHLTLPNRFLFSSYRYYIRTI”, the protein production result is “failed”.

“MRYADRVAGISWETIEEVRRRLKERPALHFIAGEFVPSESGETFPSLDPATNEVLGVAARGGEREVDRAAKAAHEAFQRWSRTKAKERKRYLLRIAELIEKHADELAVMECLDAGQVLRIVRAQVARAAENFAFYAEYAEHAMEDRTFPVDRDWLYYTVRVPAGPVGIITPWNAPLMLSTWRIAPALAFGNTVVLKPAEWSPFTATKLAEILKEADLPPGVFNLVQGFGEEAGAALVAHPLVPLLTLTGETETGKIVMRNAADHLKRLSPELGGKSPALVFADADLERALDAVVFQIFSFNGERCTASSRLLVEEKIFEDFVGKVVERARAIRVGHPLDPETEVGPLIHPEHLQRVLGYVEAGKREGARLLVGGERAKTSFRGEDLSRGNYLLPTVFVGENHMKIAQEEIFGPVLVAIPFKDEEEALRKANDTKYGLAAYVFTRDLERAHRLALELEAGMVYLNSHNVRHLPTPFGGVKGSGDRREGGTYALDFYTDLKTIALPLRPPHVPKFGK”: the protein production entry is “not failed”.

In the case of “MRYFSTDSPEVKTIVAQDSRLFQFIEIAGEVQLPTKPNPFQSLVSSIVEQQLSIKAASAIYGRVEQLVGGALEKPEQLYRVSDEALRQAGVSKRKIEYIRHVCEHVESGRLDFTELEGAEATTVIEKLTAIKGIGQWTAEMFMMFSLGRLDVLSVGDVGLQRGAKWLYGNGEGDGKKLLIYHGKAWAPYETVACLYLWKAAGTFAEEYRSLEELLHHGNQC”, the protein production entry is on record as “not failed”.

For the sequence “MRYGFMKVAAAVPFVKVADCEYNIERIDRMVHEADAKGVEIMTFPELSITGYSCGDLFFQPFLQERANEALCRLVEQTANTTVMVIVGMPLRVEEKLFNSAVVFQQGKILGAIPKTYLPNYREFQEARWFSPAHTLQYSTISIGQHSVPIGRNLIFKCGTVGVGIEICEDMWTPFTPGTRLCLYGAEVIFNLSSSNENAGKHSYLRSLISGLSSQGICAYVYASSGYGESSTDIVFTGKAFIAEAGEIVEEMERFRYEERMIISDIDVSRIQTERLINSSFKAAVTFHTHDEKFNQLPFKLRSRQESLPMTRRVDRNPFMPEDKDRKERSREMINIQVCGLMQRLLHMGAEHAVIGISGGLDSALALIVCAQAFDRLDLPRKNIIAVTMPGFGTSDRTYRNAFALMEAIGVTIKEIDIKEACLRHFEAIGHNPEVQDTTFENTQARERTQILMNLANIYNAPVIGTGDLSELALGWVTYNGDHMSMYAVNAGIAKTTVQILVDHIAHSGWLDEAASAVLLDIVRTPISPELKPVGQDGNISQKTEDLVGPYELHDFFIYHFLHNEYKPSKIYYLAGVAFKGIYTKAEIKKWMMVFFRRFFAQQYKRNCMPDGPKVSCISLSPRGAWRMASDASSALWLDEIAKFETDLEHHHHHH”, the protein production entry was “failed”.

For the sequence “MRYHGGLLLGAFDDDGKIIGMSFGYPGFRNGKLYLYSHMAGVVENKKYSNVGYSLKMKQRDLAASMGYDLIAWTFDPFNPLNAYFNISKLGAITRTYIKNFYGVMNDGINRGMRTDRVVAEWWI”, the protein production entry is listed as “failed”.

Take “MRYIKFFKELNNKNVNLVGGKNASIGEMFQELVPIGIKVPDGFAITSEAYWYLLEQGGAKQKIIELLENVDATEIDVLKIRSKQIRELIFGTPFPSDLRDEIFQAYEILSQQYHMKEADVAVRSSATAEDLPDASFAGQQDTYLNIKGKTELIHYIKSCLASLFTDRAISYRASRGFDHLKVALSVGVQKMVRADKGSAGVMFSIDTETGFKDAVFITSAWGLGENVVGGTINPDEFYVFKPTLEQNKRPIIKRQLGNKTQKMVYAPRGSEHPTRNIKTTKKEWQSFSLSDEDVLILAKYAIEIEKHYSKEAKQYRPMDIEWAKDGESGEIFIVQARPETVQSQKSKEESQVFEKFKFKNPNEKKEIILQGRAIGSKIGSGKVRIINDLEHMNSFKEGEILVTDNTDPDWEPCMKKASAVITNRGGRTCHAAIVAREIGVPAIVGVSGATDSLYTGMEITVSCAEGEEGYVYAGIYEHEIERVELSNMQETQTKIYINIGNPEKAFGFSQLPNHGVGLARMEMIILNQIKAHPLALVDLHHKKSVKEKNEIENLMAGYANPKDFFVKKIAEGIGMISAAFYPKPVIVRTSDFKSNEYMRMLGGSSYEPNEENPMLGYRGASRYYSESYNEAFSWECEALALVREEMGLTNMKVMIPFLRTIEEGKKVLEILRKNNLESGKNGLEIYIMCELPVNVILADDFLSLFDGFSIGSNDLTQLTLGVDRDSELVSHVFDERNEAMLKMFKKAIEACKRHNKYCGICGQAPSDYPEVTEFLVKEGITSISLNPDSVIPTWNAVAKLEKELKEHGLTEH”: the protein production entry is on record as “failed”.

In the case of “MRYLADHDDLTGLHNRRALLQHLDQRLAPGQPGPVAALFLDLDRLKAINDYLGHAAGDQFIHVFAQRIGDALVGESLIARLGGDEFVLIPASPMSADAAQPLAERLRDQLKDHVAIGGEVLTRTVSIGVASGTPGQHTPSDLLRRADQAALAAKHAGGDSVAIFTLEHHHHHH”, the protein production result was “failed”.

“MRYLSKDILEEVITQRPSDSYKSNFGRVVLIGGNRQYGGAIIMSTEACINSGAGLTTVITDVKNHGPLHARCPEAMVVGFEETVLLTNVVEQADVILIGPGLGLDATAQQILKMVLAQHQKQQWLIIDGSAITLFSQGNFSLTYPEKVVFTPHQMEWQRLSHLPIEQQTLANNQRQQAKLGSTIVLKSHRTTIFHAGEPFQNTGGNPGMATGGTGDTLAGIIAGFLAQFKPTIETIAGAVYLHSLIGDDLAKTDYVVLPTKISQALPTYMKKYAQPHTAPDSELLEQKRSR”: the protein production result is listed as “not failed”.

As for “MRYRDNLKRSLKQAALAAGLLMTMSCAVRATPQDDLRSAVEYNRPALVQKLVAQGVDPNLDTRDGTPLLVDALKDKNIDVAEALIRAKGLDFERANAAGENALMMAAYQGLLPLVRLMVETYDVEVNKTGWTALHYAATNGHDAIVQYLLDHGAYIDAESPNGTTPLMMATMGGQITTVKLLLDEGADMNLRNQQKMDVIDFAKRYHQDEIAAGLESRRRKLAEPGAQPVPARQPAAPAGMRPAAPVVPDVPAPMPAPRAPESAIDRDATSGLPGSLSDQKTVPPPDLRGN”, the protein production result was “failed”.

Regarding “MSAATKQQCCARAEVPVRNLHSCDVFGLPAGGAFGRPRRDKENDMSLGTIILIILIIALLGGFTGVGGGPFYGTGYYGGGGLGLVIVILLILLLLGKI”, the protein production entry is listed as “failed”.
